Results as given in patent US20160340421A1 (Regeneron, published 2016).
Ends that are not written are not given here. * marks the point of attachment. Biotin = O=C1N[C@H]2[C@H](CS[C@H]2CCCCC(=O)*)N1

How the values were obtained:
Activin A = target: T1, Activin A (UniProt P08476 311-426); assay: SPR Biacore T100, 25°C
T1 sequence (looked up): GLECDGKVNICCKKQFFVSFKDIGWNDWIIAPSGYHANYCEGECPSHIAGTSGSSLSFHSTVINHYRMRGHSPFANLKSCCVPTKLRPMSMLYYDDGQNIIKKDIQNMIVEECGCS
Protocol: Additional antigen binding experiments were conducted in which GDF8 and GDF11 were applied over a surface of selected anti-GDF8 antibodies and control antibodies at 25° C. and 37° C. Equilibrium dissociation constants (KD values) for antigen binding to selected antibodies were determined by surface kinetics using a real-time biosensor surface plasmon resonance assay (BIACORE™ T100). […] Various concentrations (2.5-0.625 nM, 2-fold dilutions) of hGDF8 homodimer or hGDF11 homodimer (or in some experiments, Activin A) were injected over the captured antibody surfaces, and antigen-antibody binding and dissociation were monitored in real time. Kinetic analysis was performed to calculate KD, dissociation rate constants (kd), association rate constants (ka) and half-life of antigen/antibody complex dissociation. (NB=no binding observed).

[1] = target: T2, Human GDF8 homodimer (mature human Growth and Differentiation Factor-8) (human, UniProt O14793 267-375); assay: cell-based or functional assay
T2 sequence: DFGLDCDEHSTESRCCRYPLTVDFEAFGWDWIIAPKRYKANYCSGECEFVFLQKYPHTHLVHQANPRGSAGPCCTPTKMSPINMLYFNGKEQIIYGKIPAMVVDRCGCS

[2] = target: T3, hGDF8 peptide 14 (91-105), C-terminal biotinylated (human); assay: Luminex peptide beads
T3 construct: also called peptide 14 C-term
T3 peptide: EQIIYGKIPAMVVDR-biotin
Source text: (§1) Fourteen peptides (Table 10) were generated from mature hGDF8 (SEQ ID NO:340). Unmodified peptides, N-terminal biotinylated peptides (N-term), or C-terminal biotinylated peptides (C-term) were used to test and localize antibody binding. Full-length hGDF8, hGDF11 and unmodified peptides were each individually amine-coupled to xMAP® Multi-Analyte COOH Microspheres (or beads). Each of the biotinylated peptides was bound to xMAP® Multi-Analyte LumAvidin Microspheres. Peptide-bound beads suspension were then mixed with an equal volume of blocking buffer (PBS, 1%13SA, 0.05% Tween20, 0.05% Sodium azide) and then distributed into a 96 well filter plate (Millipore, MULTISCREEN® BV). Control and test anti-hGDF8 antibodies, at 2.5 μg/ml were then added to the peptide-bound beads suspension and were allowed to bind to the beads at RT, overnight. The antibody-incubated beads were then washed twice with PBST (PBS+0.05% Tween20) and incubated with either Phycoerythrin (PE) conjugated anti-hFC or PE-conjugated anti-mFC antibodies at RT for 45 min. The beads were washed again and the antibody binding signal to various peptides were detected with either LUMINEX® 100™ or 200™ instruments.

[3] = target: T4, hGDF8 peptide 10 (56-72), C-terminal biotinylated (human); assay: Luminex peptide beads
T4 construct: also called peptide 10 C-term
T4 peptide: PHTHLVHQANPRGSAGP-biotin
Source text: as §1

[4] = target: T5, hGDF8 peptide 6 (48-72), N-terminal biotinylated (human, N-terminal biotin); assay: Luminex peptide beads
T5 construct: also called peptide 6 N-term
T5 peptide: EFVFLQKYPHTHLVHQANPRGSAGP
Source text: as §1

[5] = target: T6, hGDF8 peptide 11 (65-72), N-terminal biotinylated (human); assay: Luminex peptide beads
T6 construct: also called peptide 11 N-term
T6 peptide: Biotin-NPRGSAGP
Source text: as §1

[6] = target: T7, hGDF8 peptide 5 (48-69), unmodified (human); assay: Luminex peptide beads
T7 peptide: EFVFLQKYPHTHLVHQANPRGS
Source text: as §1

[7] = target: T8, hGDF8 peptide 12 (73-90), N-terminal biotinylated (human, cysteine pairing not given here); assay: Luminex peptide beads
T8 construct: also called peptide 12 N-term
T8 peptide: Biotin-CCTPTKMSPINMLYFNGK
Source text: as §1

[8] = target: T9, hGDF8 peptide 12 (73-90), C-terminal biotinylated (human, cysteine pairing not given here); assay: Luminex peptide beads
T9 construct: also called peptide 12 C-term
T9 peptide: CCTPTKMSPINMLYFNGK-biotin
Source text: as §1

[9] = target: T10, hGDF8 peptide 13 (75-105), unmodified (human); assay: Luminex peptide beads
T10 peptide: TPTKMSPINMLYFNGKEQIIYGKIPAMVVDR
Source text: as §1

[10] = target: T11, hGDF8 peptide 5 (48-69), C-terminal biotinylated (human, C-terminal biotin); assay: Luminex peptide beads
T11 construct: also called peptide 5 C-term
T11 peptide: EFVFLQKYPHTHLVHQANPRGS
Source text: as §1

[11] = target: T12, hGDF8 peptide 9 (56-65), C-terminal biotinylated (human); assay: Luminex peptide beads
T12 construct: also called peptide 9 C-term
T12 peptide: PHTHLVHQAN-biotin
Source text: as §1

[12] = target: T13, hGDF8 peptide 1 (1-14), C-terminal biotinylated (human); assay: Luminex peptide beads
T13 construct: also called peptide 1 C-term
T13 peptide: DFGLDCDEHSTESR-biotin
Source text: as §1

[13] = target: T14, hGDF8 peptide 3 (17-42), C-terminal biotinylated (human, C-terminal biotin); assay: Luminex peptide beads
T14 construct: also called peptide 3 C-term
T14 peptide: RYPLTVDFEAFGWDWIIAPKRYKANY
Source text: as §1

[14] = target: T15, hGDF8 peptide 3 (17-42), unmodified (human); assay: Luminex peptide beads
T15 peptide: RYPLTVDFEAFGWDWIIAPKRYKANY
Source text: as §1

[15] = target: T16, hGDF8 peptide 7 (52-65), C-terminal biotinylated (human); assay: Luminex peptide beads
T16 construct: also called peptide 7 C-term
T16 peptide: LQKYPHTHLVHQAN-biotin
Source text: as §1

[16] = target: T17, hGDF8 peptide 2 (1-18), N-terminal biotinylated (human, cysteine pairing not given here); assay: Luminex peptide beads
T17 construct: also called peptide 2 N-term
T17 peptide: Biotin-DFGLDCDEHSTESRCCRY
Source text: as §1

[17] = target: T18, hGDF8 peptide 12 (73-90), unmodified (human); assay: Luminex peptide beads
T18 peptide: CCTPTKMSPINMLYFNGK
Source text: as §1

[18] = target: T19, hGDF8 peptide 8 (52-72), unmodified (human); assay: Luminex peptide beads
T19 peptide: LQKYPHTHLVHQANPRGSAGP
Source text: as §1

[19] = target: T20, hGDF8 peptide 10 (56-72), unmodified (human); assay: Luminex peptide beads
T20 peptide: PHTHLVHQANPRGSAGP
Source text: as §1

[20] = target: T21, hGDF8 peptide 13 (75-105), N-terminal biotinylated (human, N-terminal biotin); assay: Luminex peptide beads
T21 construct: also called peptide 13 N-term
T21 peptide: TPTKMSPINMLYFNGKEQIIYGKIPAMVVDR
Source text: as §1

[21] = target: T22, hGDF8 peptide 11 (65-72), C-terminal biotinylated (human); assay: Luminex peptide beads
T22 construct: also called peptide 11 C-term
T22 peptide: NPRGSAGP-biotin
Source text: as §1

[22] = target: T23, hGDF8 peptide 6 (48-72), unmodified (human); assay: Luminex peptide beads
T23 construct: also called peptide fragment 48-72 amino acids
T23 peptide: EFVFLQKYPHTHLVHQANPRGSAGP
Source text: as §1

[23] = target: T24, hGDF8 peptide 14 (91-105), unmodified (human); assay: Luminex peptide beads
T24 peptide: EQIIYGKIPAMVVDR
Source text: as §1

[24] = target: T25, hGDF8 peptide 4 (48-65), unmodified (human); assay: Luminex peptide beads
T25 peptide: EFVFLQKYPHTHLVHQAN
Source text: as §1

B1: H4H1657N2 (antibody, V domains shown)
VH: EVQVLESGGDLVQPGGSLRLSCAASGFTFSAYAMTWVRQAPGKGLEWVSAISGSGGSAYYADSVKGRFTISRDNSKNTVYLQMNSLRAEDTAVYYCAKDGAWKMSGLDVWGQGTTVIVSS
VL: DIQMTQSPASLSASVGDRVTITCRASQDISDYLAWYQQKPGKIPRLLIYTTSTLQSGVPSRFRGSGSGTDFTLTISSLQPEDVATYYCQKYDSAPLTFGGGTKVEIK
notes: captured by anti-hFc, so human Fc
0.78 nM: IC50, luciferase bioassay, 0.5 nM GDF8 [1]
no binding (tested: 2.5-0.625 nM): binding result (Activin A)
no binding (tested: 2.5 µg/ml): binding result [2] | binding result [3] | binding result [4] | binding result [5] | binding result [6] | binding result [7] | binding result [8] | binding result [9] | binding result [10] | binding result [11] | binding result [12] | binding result [13] | binding result [14] | binding result [15] | binding result [16] | binding result [17] | binding result [18] | binding result [19] | binding result [20] | binding result [21] | binding result [22] | binding result [23] | binding result [24]
